From patent publication US20260139239

T1: Fluorogenic peptide substrate ENLYFQGGGK with G at P1'
T1 chain: ENLYFQGGGK

T2: Fluorogenic peptide substrate ENLYFQKGGK with K at P1'
T2 chain: ENLYFQKGGK

T3: Fluorogenic peptide substrate ENLYFQIGGK with I at P1'
T3 chain: ENLYFQIGGK

T4: Fluorogenic peptide substrate ENLYFQTGGK with T at P1'
T4 chain: ENLYFQTGGK

T5: Fluorogenic peptide substrate ENLYFQVGGK with V at P1'
T5 chain: ENLYFQVGGK

T6: Fluorogenic peptide substrate ENLYFQRGGK with R at P1'
T6 chain: ENLYFQRGGK

T7: Fluorogenic peptide substrate ENLYFQLGGK with L at P1'
T7 chain: ENLYFQLGGK

T8: Fluorogenic peptide substrate ENLYFQEGGK with E at P1'
T8 chain: ENLYFQEGGK

B1: TEV protease variant P1-M218F (SEQ ID NO:1 with Q74L, S135G, I138T, S153N, R203G and M218F) (protein)
chain: GESLFKGPRDYNPISSSICHLTNESDGHTTSLYGIGFGPFIITNKHLFRRNNGTLLVQSLHGVFKVKDTTTLQLHLVDGRDMIIIRMPKDFPPFPQKLKFREPQREERICLVTTNFQTKSMSSMVSDTSCTFPSGDGTFWKHWIQTKDGQCGNPLVSTRDGFIVGIHSASNFTNTNNYFTSVPKNFMELLTNQEAQQWVSGWGLNADSVLWGGHKVFFNKPEEPFQPVKEATQLMN
B2: TEV protease double mutant DM (SEQ ID NO:1 with S153N and R203G) (protein)
chain: GTHHHHHHGSGSGTGESLFKGPRDYNPISSSICHLTNESDGHTTSLYGIGFGPFIITNKHLFRRNNGTLLVQSLHGVFKVKDTTTLQQHLVDGRDMIIIRMPKDFPPFPQKLKFREPQREERICLVTTNFQTKSMSSMVSDTSCTFPSSDGIFWKHWIQTKDGQCGNPLVSTRDGFIVGIHSASNFTNTNNYFTSVPKNFMELLTNQEAQQWVSGWGLNADSVLWGGHKVFMNKPEEPFQPVKEATQLMN

Tests used:
[1] = biological target: T1, Fluorogenic peptide substrate …
[2] = biological target: T2, Fluorogenic peptide substrate …
[3] = biological target: T3, Fluorogenic peptide substrate …
[4] = biological target: T4, Fluorogenic peptide substrate …
[5] = biological target: T5, Fluorogenic peptide substrate …
[6] = biological target: T6, Fluorogenic peptide substrate …
[7] = biological target: T7, Fluorogenic peptide substrate …
[8] = biological target: T8, Fluorogenic peptide substrate …

| Protein | Km (Michaelis Menten kinetics, fluorogenic peptide cleavage) [1] [µM] | Km (Michaelis Menten kinetics, fluorogenic peptide cleavage) [2] [µM] | Km (Michaelis Menten kinetics, fluorogenic peptide cleavage) [3] [µM] | Km (Michaelis Menten kinetics, fluorogenic peptide cleavage) [4] [µM] | Km (Michaelis Menten kinetics, fluorogenic peptide cleavage) [5] [µM] | Km (Michaelis Menten kinetics, fluorogenic peptide cleavage) [6] [µM] | Km (Michaelis Menten kinetics, fluorogenic peptide cleavage) [7] [µM] | Km (Michaelis Menten kinetics, fluorogenic peptide cleavage) [8] [µM] |
| --- | --- | --- | --- | --- | --- | --- | --- | --- |
| B1 | 2.9 | 7.4 | 5.3 | 1.1 | 2.5 | 14.5 | 2.2 | 1.5 |
| B2 | 13.7 | 13.8 | 45.9 | 7 | 45.8 | 47.2 | 23.2 | 41 |
